Source: the supplement of paper PMC6379048

How the values were obtained:
Test in all cases: EC50 of free RNA motif oligo competing protein binding to immobilised probe
MRPL53 = MRPL53 (UniProt Q96EL3)
Outline: (§1)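 HEK293-FT lysate (2.5 mg protein/well) was treated with free RNA oligos (0 nM to 30 μM) for 1 h at 4°C, then with the same oligos on NHS-Sepharose beads for 30 min at 4°C. Bound proteins were quantified by label-free LC-MS/MS relative to the control. EC50 came from a four-parameter log-logistic fit, and Kd is EC50 times a protein-dependent depletion factor.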

GPALPP1 = target: T1, GPALPP1 (UniProt Q8IXQ4)
T1 sequence: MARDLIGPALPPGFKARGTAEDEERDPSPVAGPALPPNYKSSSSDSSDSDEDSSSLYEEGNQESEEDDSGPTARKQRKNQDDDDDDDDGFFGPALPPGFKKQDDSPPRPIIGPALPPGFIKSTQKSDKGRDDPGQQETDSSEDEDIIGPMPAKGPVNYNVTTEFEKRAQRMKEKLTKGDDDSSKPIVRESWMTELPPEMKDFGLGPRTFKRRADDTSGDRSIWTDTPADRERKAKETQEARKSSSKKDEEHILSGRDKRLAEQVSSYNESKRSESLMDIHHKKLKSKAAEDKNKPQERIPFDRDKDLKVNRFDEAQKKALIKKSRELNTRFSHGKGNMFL
Outline: as §1

AASS = target: T2, AASS (UniProt Q9UDR5)
T2 sequence: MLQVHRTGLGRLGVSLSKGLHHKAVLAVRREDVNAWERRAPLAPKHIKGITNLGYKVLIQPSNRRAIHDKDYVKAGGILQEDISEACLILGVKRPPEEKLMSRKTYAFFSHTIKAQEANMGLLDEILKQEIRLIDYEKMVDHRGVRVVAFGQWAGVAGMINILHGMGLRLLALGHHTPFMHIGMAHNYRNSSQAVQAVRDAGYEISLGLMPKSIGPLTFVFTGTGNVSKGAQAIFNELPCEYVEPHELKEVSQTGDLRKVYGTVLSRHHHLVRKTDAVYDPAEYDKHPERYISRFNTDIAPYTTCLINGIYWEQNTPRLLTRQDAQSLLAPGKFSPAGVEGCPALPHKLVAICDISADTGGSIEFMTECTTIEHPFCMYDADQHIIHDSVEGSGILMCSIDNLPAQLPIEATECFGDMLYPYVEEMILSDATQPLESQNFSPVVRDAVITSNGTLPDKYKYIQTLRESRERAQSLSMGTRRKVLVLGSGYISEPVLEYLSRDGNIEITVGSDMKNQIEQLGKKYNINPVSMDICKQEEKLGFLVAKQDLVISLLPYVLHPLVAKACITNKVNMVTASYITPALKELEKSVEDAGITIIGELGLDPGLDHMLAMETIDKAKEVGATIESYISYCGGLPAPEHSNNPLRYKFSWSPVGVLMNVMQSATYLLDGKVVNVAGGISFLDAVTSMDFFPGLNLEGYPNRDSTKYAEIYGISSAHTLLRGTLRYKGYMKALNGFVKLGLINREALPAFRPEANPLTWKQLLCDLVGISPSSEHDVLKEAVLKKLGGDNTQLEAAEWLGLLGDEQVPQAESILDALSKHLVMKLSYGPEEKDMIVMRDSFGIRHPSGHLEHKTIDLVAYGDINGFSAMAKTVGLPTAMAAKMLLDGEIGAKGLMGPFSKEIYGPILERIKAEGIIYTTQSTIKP
Outline: as §1

CPSF4 = CPSF4 (UniProt O95639)
Chain of CPSF4 (O95639 whole entry): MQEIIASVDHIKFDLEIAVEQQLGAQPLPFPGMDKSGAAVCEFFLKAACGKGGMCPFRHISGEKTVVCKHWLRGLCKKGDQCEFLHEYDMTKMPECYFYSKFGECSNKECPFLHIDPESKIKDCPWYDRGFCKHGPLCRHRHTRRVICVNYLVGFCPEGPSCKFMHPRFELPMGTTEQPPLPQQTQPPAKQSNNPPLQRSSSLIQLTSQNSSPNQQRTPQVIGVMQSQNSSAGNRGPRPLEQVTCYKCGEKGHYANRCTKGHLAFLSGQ
Outline: as §1

PLOD1 = target: T3, PLOD1 (UniProt Q02809)
T3 sequence: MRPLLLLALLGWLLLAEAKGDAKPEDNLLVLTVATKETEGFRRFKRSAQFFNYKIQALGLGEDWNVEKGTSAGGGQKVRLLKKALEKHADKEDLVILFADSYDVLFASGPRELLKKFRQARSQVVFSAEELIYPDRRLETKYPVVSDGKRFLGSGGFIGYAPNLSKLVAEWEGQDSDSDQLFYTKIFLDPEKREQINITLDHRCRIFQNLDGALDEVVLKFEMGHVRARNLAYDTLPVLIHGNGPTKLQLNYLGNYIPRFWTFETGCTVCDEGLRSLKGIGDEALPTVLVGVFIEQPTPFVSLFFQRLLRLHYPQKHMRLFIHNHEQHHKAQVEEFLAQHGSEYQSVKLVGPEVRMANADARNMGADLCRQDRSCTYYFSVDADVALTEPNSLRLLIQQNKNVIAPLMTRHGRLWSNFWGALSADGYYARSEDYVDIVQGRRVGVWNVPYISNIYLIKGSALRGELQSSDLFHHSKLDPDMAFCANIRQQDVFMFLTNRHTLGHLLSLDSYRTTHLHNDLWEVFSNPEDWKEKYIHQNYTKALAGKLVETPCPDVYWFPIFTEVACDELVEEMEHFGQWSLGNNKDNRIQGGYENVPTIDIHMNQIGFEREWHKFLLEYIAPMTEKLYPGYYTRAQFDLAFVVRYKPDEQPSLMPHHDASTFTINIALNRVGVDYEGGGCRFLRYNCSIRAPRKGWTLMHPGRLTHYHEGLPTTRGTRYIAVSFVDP
Outline: as §1

LSM8 = target: T4, LSM8 (UniProt O95777)
T4 sequence: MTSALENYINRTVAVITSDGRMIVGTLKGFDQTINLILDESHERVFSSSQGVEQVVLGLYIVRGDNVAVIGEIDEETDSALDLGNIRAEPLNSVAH
Outline: as §1

ZCRB1 = target: T5, ZCRB1 (UniProt Q8TBF4)
T5 sequence: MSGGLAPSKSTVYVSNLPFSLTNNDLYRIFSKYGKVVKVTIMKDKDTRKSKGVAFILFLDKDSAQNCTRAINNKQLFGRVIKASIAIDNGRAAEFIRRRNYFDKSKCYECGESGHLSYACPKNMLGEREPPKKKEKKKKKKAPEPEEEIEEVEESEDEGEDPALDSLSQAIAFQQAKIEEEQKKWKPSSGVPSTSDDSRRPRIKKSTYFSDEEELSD
Outline: as §1

CUGUCCU
EC50 (MRPL53): 103 nM

AAUAAA
EC50 (GPALPP1): 33.8 nM | EC50 (AASS): 9.78 µM | EC50 (CPSF4): 55.5 nM

UAUUUAU
EC50 (PLOD1): 6.72 µM | EC50 (LSM8): 9.58 µM | EC50 (ZCRB1): 3.8 µM
